Assay results from PMC3988567.

Molecular target: ZnF-UBP domain from USP5 (human) (UniProt P45974)
Experiment: ITC

Chain of ZnF-UBP domain from USP5 (human) (P45974 163-291): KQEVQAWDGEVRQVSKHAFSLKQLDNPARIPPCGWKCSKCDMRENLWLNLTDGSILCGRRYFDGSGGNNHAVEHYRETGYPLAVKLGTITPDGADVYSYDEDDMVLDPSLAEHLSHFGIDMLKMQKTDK

## ubiquitin (from UniProt P0CG48 1-76) (natural protein)
  stoichiometry N: 1
